According to publication PMC6639331, “Reconstitution of recombinant human CCR4-NOT reveals molecular insights into regulated deadenylation”:

Assays:
[1] = biological target: T1, CAF40 module (NOT1:CAF40) (Homo sapiens, UniProt A5YKK6;Q92600 1351-1588;19-285); assay: EMSA competition; 100 uM NOT1:CAF40 + 200 uM MBP-Bam CBM L17E;M24E; almost no effect on RNA binding; EMSA: 20 mM Tris/HCl pH 7.5, 10 mM NaCl, 2 mM MgCl2, 0.1% BSA, 0.1% Orange G, 3% Ficoll 400; 100 nM RNA; 10% native PAGE in TBE pH 8.3; temperature not stated; conditions: protein: recombinant; tags: MBP (NOT1) and His6 (CAF40) removed; copies: 1;1; label: 5' 6-FAM
[2] = biological target: NOT10:NOT11 (Homo sapiens, UniProt Q9H9A5;Q9UKZ1 25-707;257-498); assay: EMSA; 1 uM protein, 100 nM RNA; EMSA: 20 mM Tris/HCl pH 7.5, 10 mM NaCl, 2 mM MgCl2, 0.1% BSA, 0.1% Orange G, 3% Ficoll 400; 100 nM RNA; 10% native PAGE in TBE pH 8.3; temperature not stated; conditions: protein: recombinant; tags: MBP (NOT10) and C-His6 (NOT11) removed; copies: 1;1; label: 5' 6-FAM
[3] = biological target: T1, CAF40 module (NOT1:CAF40); assay: EMSA; 25 uM protein, 100 nM RNA; EMSA: 20 mM Tris/HCl pH 7.5, 10 mM NaCl, 2 mM MgCl2, 0.1% BSA, 0.1% Orange G, 3% Ficoll 400; 100 nM RNA; 10% native PAGE in TBE pH 8.3; temperature not stated; conditions: protein: recombinant; tags: MBP (NOT1) and His6 (CAF40) removed; copies: 1;1; label: 5' 6-FAM

T1 sequence (A5YKK6 1351-1588, chain 1 of 2): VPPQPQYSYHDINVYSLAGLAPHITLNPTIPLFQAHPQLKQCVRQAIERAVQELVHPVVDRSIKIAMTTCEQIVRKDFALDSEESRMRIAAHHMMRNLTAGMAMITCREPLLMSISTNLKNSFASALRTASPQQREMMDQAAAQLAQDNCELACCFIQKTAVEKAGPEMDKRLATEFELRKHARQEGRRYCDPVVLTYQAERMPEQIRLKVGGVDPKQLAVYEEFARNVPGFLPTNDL
T1 sequence (Q92600 19-285, chain 2 of 2): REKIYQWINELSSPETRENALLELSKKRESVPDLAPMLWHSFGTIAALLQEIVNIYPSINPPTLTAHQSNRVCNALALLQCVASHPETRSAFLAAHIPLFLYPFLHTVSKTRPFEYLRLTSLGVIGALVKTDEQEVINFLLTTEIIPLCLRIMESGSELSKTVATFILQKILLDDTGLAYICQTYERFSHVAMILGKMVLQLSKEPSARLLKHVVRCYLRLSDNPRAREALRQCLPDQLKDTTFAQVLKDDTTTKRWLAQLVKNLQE
Sequence of NOT10:NOT11 (Q9H9A5 25-707, chain 1 of 2, other chains not shown): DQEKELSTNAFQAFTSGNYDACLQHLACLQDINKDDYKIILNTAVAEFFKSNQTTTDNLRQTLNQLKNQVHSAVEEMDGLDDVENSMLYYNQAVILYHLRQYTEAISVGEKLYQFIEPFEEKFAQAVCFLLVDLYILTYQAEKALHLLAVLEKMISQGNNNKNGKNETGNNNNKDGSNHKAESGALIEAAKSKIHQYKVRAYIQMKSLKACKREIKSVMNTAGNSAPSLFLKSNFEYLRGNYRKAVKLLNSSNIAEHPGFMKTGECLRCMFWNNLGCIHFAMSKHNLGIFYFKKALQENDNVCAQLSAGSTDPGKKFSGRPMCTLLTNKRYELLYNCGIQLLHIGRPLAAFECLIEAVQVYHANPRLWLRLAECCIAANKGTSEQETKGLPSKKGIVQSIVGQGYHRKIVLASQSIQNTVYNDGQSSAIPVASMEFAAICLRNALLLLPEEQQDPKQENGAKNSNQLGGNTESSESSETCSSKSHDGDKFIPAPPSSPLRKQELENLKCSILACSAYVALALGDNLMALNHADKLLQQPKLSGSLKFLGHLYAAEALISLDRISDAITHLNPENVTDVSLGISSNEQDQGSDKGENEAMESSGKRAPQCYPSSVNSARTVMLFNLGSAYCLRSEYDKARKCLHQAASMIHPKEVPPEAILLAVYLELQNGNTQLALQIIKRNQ

Row | Binder | binding result [1] | binding result [2] | binding result [3]
1 | UCUAAAUAAAAAAAAAAAAAAAAAAAA (ssRNA) [7-mer-A20] | binds | binds | –
2 | CACAUCCAACUUCUCUAAAUAAAAAAAAAAAAAAAAAAAA (ssRNA) [13+7-mer-A20] | – | binds | binds
